Assay results from EP4585618A1 (Jiangsu Hengrui Pharmaceuticals Co., Ltd., dated 2025).
Blank lines part the entries; values can stand above or below the binder they belong to.

Key:
[1] = target: T1, His-tagged ILT4 protein extracellular domain: ILT4-His (human, UniProt Q8N423 22-460); assay: ELISA, coated ILT4-His 1 µg/mL; Assay 2
T1 construct: Expressed in 293 cells; also called human ILT4-His protein

[2] = target: T1, His-tagged ILT4 protein extracellular …; assay: screening of chimeric antibodies (ILT4 protein binding, cell binding, ILT4/HLA-G blocking)
[3] = target: T1, His-tagged ILT4 protein extracellular …; assay: ELISA, coated ILT4-His 1 µg/mL; Assay 5

T1 sequence (Q8N423 other isoform, or with tags, fused parts or gaps limits assumed): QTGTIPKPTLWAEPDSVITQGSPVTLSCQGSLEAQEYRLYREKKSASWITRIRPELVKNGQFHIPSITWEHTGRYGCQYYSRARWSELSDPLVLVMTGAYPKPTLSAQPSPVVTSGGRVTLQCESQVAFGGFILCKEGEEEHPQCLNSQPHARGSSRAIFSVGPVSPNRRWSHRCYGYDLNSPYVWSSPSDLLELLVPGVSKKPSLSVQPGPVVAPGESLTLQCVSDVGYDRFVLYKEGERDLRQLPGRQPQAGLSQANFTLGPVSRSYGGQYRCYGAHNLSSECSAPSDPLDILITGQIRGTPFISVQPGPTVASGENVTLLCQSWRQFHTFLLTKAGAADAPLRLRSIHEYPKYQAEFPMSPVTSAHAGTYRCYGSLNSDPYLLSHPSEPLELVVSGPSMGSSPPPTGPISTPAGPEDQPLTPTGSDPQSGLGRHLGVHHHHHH

B2: chimeric antibody ChP2-C10 (antibody, human IgG4 S228P, kappa, F234A L235A, V domains shown)
VH: QVQLQQPGAELVKPGASVKLSCKASGYTFTSYWMHWVKQRPGQGLEWIGVIHPNSDTTNYNEKFKNKATLTVDKSSSTAYMQLSSLTSEDSAVYYCATRYDYAYYAMDYWGQGTSVTVSS
VL: DIVMTQSHKFMSTSVGDRVSITCKASQDVTTAVAWYQQKPGQSPKLLIYSASYRYTGVPDRFTGSGSGTDFTFTISSVQAEDLAVYHCQQHYSTSPTFGGGTMLEIKR
notes: Murine variable regions with hIgG4(LALA) and CL constant regions; also called M P2-C10
binding result [2]: binds

B3: chimeric antibody ChP2-C6 (antibody, human IgG4 S228P, kappa, F234A L235A, V domains shown)
VH: EVQLQQSGPELVKPGASVKMSCEASGYTFTDYYIHWVKQSHGESLEWIGYIYPDNGYNGYNQKFKGKATLTVDKSSNTAYMELRSLTSEDSAVYFCTRRGDYSGVHFDYWGQGTALTVSS
VL: DIVLTQSPASLAVSLGQRATISCRASESVNNYGVGFLHWYQQKPGQPPKLLIYRASTLESGIPARFSGSGSRTDFTLTINPVETDDVATYYCQHSYKDPPWTFGGGTKLEIKR
notes: Murine variable regions with hIgG4(LALA) and CL constant regions; also called M P2-C6
binding result [2]: binds

B4: chimeric antibody ChP1-D10 (antibody, human IgG4 S228P, kappa, F234A L235A, V domains shown)
VH: QVQLKQSGPGLVQPSQSLSITCTVSGFSLTTYGVHWVRQSPGKGLEWLGVIWSGGNTDSNAAFISRLSISKDNSKSQVFFKMNNLQADDTAIYYCARYSYAMDYWGQGTSVTVSS
VL: DIVMTQSHKFMSTSVGDRVSITCKASQDVSNGVAWYQQKPGQSPKVLIYAASYRYTGVPDRFTGSGSGTDFTFTIGSVQAEDLALYYCQQHYSTPFTFGSGTMLEIKR
notes: Murine variable regions with hIgG4(LALA) and CL constant regions; also called M P1-D10
binding result [2]: binds

B5: chimeric antibody ChP2-F4 (antibody, human IgG4 S228P, kappa, F234A L235A, V domains shown)
VH: EVQLVESGGGLVKPGGSLKLSCAASGFTFSDYGMHWVRQAPEKGLEWVAYISSGSRIIYYADTVKGRFTISRDNAKNTLFLQMTSLRSEDTAMYSCARFYNYAHYTMDYWGQGTSVTVSS
VL: DIVMTQSHKFMSTSVGDRVSITCKASQDVSTAVAWYQQKPGQSPKLLIYSASYRYTGVPDRFTGSGSGTDFTFTISSVQAEDLTLYYCQHHYSTPPTFGGGTKLEIKR
notes: Murine variable regions with hIgG4(LALA) and CL constant regions; also called M P2-F4
binding result [2]: binds

B7: chimeric antibody ChP1-G7 (antibody, human IgG4 S228P, kappa, F234A L235A, V domains shown)
VH: DVQLQESGPGLVKPSQSLSLTCSVTGYSITSGYYWNWIRQFPENKLEWMGYISYDGGNNYNPFLKNRISITRDTSKNQFFLNLNSVTIEDTATYYCAREGGSSWEYYGMDYWGQGTSVTVSS
VL: DIQMTQSPASLSVSVGETVTITCRASENIYRNLAWYQQKQGHSPQLLLYAATNLADGVPSRFSGSGSGTQYSLKINSLQSEDFGSYYCQQFWGSPYTFGGGTKLEIKR
notes: Murine variable regions with hIgG4(LALA) and CL constant regions; also called M P1-G7
binding result [2]: binds

B8: chimeric antibody ChP2-C7 (antibody, human IgG4 S228P, kappa, F234A L235A, V domains shown)
VH: EVQLQQSGPELVKPGTSVKMSCKASGYTFTDYSMHWVRQSHGKSLEWIGYFNPNNGDTIYNQKFKGKATLTVNKSSSTAYMELRSLTSDDSAVYYCAREDSVSTNAWDGALDYWGQGTSVTVSS
VL: DIQMTQSPASLSVSVGETVTITCRTSENIYSNLAWYQQKQGKSPQLLVYGATNLADGVPSRFSGSGSGTQYSLKINSLQSEDFGSYYCQHFWDIPWTFGGGTTLEIKR
notes: Murine variable regions with hIgG4(LALA) and CL constant regions; also called M P2-C7
binding result [2]: binds

B11: chimeric antibody ChP1-B9 (antibody, human IgG4 S228P, kappa, F234A L235A, V domains shown)
VH: QVQLKQSGPGLVQPSQSLSITCTVSGFSLTSYGVHWVRQSPGKGLEWLGVIWSGGNTDYNAAFMSRLRINKDNSKSQVFFKMNSLQGSDTAIYYCATPYDVVPFAYWGQGTLVTVSS
VL: DIVMTQSHKFMSTSVGDRVSITCKASQDVNIAVAWYQQKPGLSPKLLIYSASYRYTGVPGRFTGSGSGTDFTFTISSVKAEDLAVYYCQQHYSIPFTFGAGTKLEIKR
notes: Murine variable regions with hIgG4(LALA) and CL constant regions; also called M P1-B9
binding result [2]: binds

B12: chimeric antibody ChP2-E8 (antibody, human IgG4 S228P, kappa, F234A L235A, V domains shown)
VH: EVQLLESGGGLVKPGGSLKLSCAASGFTFSDYGIHWVRQAPEKGLEWVAYISSGSSIINYADTVKGRFTISRDNAKNTLLLQMTSLRSEDTAMYYCARGPNYYGSSYLLVYWGQGTLVTVSS
VL: DIVMTQSHKFMSTSVGDRVSITCKASQDVNIAVAWYQQRPGQSPKLLIYSASYRYTGVPDRFTGSGSGTDFTFTISSVQAEDLAVYYCQQHYNIPWTFGGGTKLEIKR
notes: Murine variable regions with hIgG4(LALA) and CL constant regions; also called M P2-E8
binding result [2]: binds

B13: chimeric antibody ChP2-B3 (antibody, human IgG4 S228P, kappa, F234A L235A, V domains shown)
VH: QVQLKQSGPGLVQPSQSLSITCTVSGFSLTNYGVHWFRQSPGKGLEWLGMIWSGGNTDYNAAFTSRLIITKDNSKSQVFFKMNSMQADDTAIYYCARGDYGSSSAYWGQGTLVTVSS
VL: DIVMTQSHKFMSTSVGDRVSITCKASQDVSIAVAWYQQKPGQSPKLLIYSASYRYTGVPDRFTGSGSGTDFTFTISSVQAEDLAVYYCQQHYSNTLTFGAGTKLEIKR
notes: Murine variable regions with hIgG4(LALA) and CL constant regions; also called M P2-B3
binding result [2]: binds

Other lines, results leading:

EC50 [1]: 0.0729 µg/mL
Top [1]: 2 absorbance at 450 nm
B1: chimeric antibody ChP2-E7 (antibody, human IgG4 S228P, kappa, F234A L235A, V domains shown)
VH: QVQLQQPGTELVKPGASVKLSCKASGYTFTSYWMHWVKQSPGQGLEWIGNINPSNGGPNYNENFKTKATLTVDKSSSTAYMQLNSLTSEDSAVYYCAGGDYYGGSYLFAYWGQGTLVTVSS
VL: DTVMTQSHKFMSTSVGDRVSVTCKASQDVNIAVAWYQQKPGQSPKLLIYSSSYRYTGVPDRFTGSGSETDFTFTISSVQAEDLAVYYCQQHYTFPYTFGGGTKLEIKR
notes: Murine variable regions with hIgG4(LALA) and CL constant regions; also called M P2-E7

EC50 [1]: 0.0428 µg/mL
Top [1]: 1.98 absorbance at 450 nm
B6: chimeric antibody ChP2-E11 (antibody, human IgG4 S228P, kappa, F234A L235A, V domains shown)
VH: QVQLQQSGPELVKPGASVKISCKASAYTFTDYYINWVKQRPGQGLEWIGWIFPGSGSTYYNEKFKGKATLTVDKSSSTAYMLVSSLTSEDSAVYFCARSGTLVAPYAMDYWGQGTSVTVSS
VL: SIVMTQTPKFLLVSAGDRVTITCKASQSVSNDVAWYQQKPGQSPKLLIYYTSNRYTGVPDRFTGSGYGTDFTFTISTVQAEDLAVYFCQQDYSFPLTFGAGTKLEIKR
notes: Murine variable regions with hIgG4(LALA) and CL constant regions; also called M P2-E11

EC50 [3]: 0.0658 µg/mL
Top [3]: 1.65 absorbance at 450 nm
B9: chimeric antibody ChP2-E10 (antibody, human IgG4 S228P, kappa, F234A L235A, V domains shown)
VH: DVQLQESGPGLVKPSQSLSLTCSVTGYSITSGYYWNWIRQFPGNKLEWMGYMSYEGTNNSNPSLKNRISITRDTSKNQFFLKLNSVTTEDTARYYCARERAYYYGTLGAMDYWGQGTSVTVSS
VL: DIQMTQSPASLSVSVGETVTITCRASENIYSNLAWYQQKQGKSPQLLVYAATNLADGVPSRFSGSGSGTQYSLKINSMQSEDFGSYYCQHFWDTPFTFGSGTKLEIKR
notes: Murine variable regions with hIgG4(LALA) and CL constant regions; also called M P2-E10

EC50 [3]: 0.0487 µg/mL
Top [3]: 1.53 absorbance at 450 nm
B10: chimeric antibody ChP2-B9 (antibody, human IgG4 S228P, kappa, F234A L235A, V domains shown)
VH: EVQLQQSGPELVKPGASVKISCKASGYTFTDYFMNWVKLSHGKSLEWIGDINPNNGGTSYNQRFKDKVTLTVDKSSSTAYMELRSLTSDSSAVYFCARNGYYDSNYLSYFDVWGTGTTVTVSS
VL: DIQMTQSPASLSVSVGETVTITCRASENIYSNLAWYQQKQGKSPQLLVYGATNLADGVPSRFSGSGSGTQYSLKINSLQSEDFGSYYCQHFWDTPYTFGGGTKLEIKR
notes: Murine variable regions with hIgG4(LALA) and CL constant regions; also called M P2-B9

EC50 [3]: 0.0493 µg/mL
Top [3]: 1.16 absorbance at 450 nm
B14: chimeric antibody ChP2-C2 (antibody, human IgG4 S228P, kappa, F234A L235A, V domains shown)
VH: QVQLKQSGPGLVQPSQSLSITCTVSGFSLTSYGVHWVRQSPGKGLEWLGVIWSGGHTDLNAAFISRLSINKDNSKSQVFFKMNSLQGDDTAIYYCARNGYGGCLDYWGQGTTLTVSS
VL: DIVMTQSHKFMSTSVGDRVSITCKAGQDVSIAVAWYQQKPGQSPQLLIYSASYRYTGVPDRFTGSGSGTDFTFAISSVQAEDLAVYYCQQYYSIPPSFGAGTKLEIKR
notes: Murine variable regions with hIgG4(LALA) and CL constant regions; also called M P2-C2

EC50 [1]: 0.0621 µg/mL
Top [1]: 1.83 absorbance at 450 nm
B15: chimeric antibody ChP2-G4 (antibody, human IgG4 S228P, kappa, F234A L235A, V domains shown)
VH: EVQLQQSGPELVKPGASVKMSCKASGYTFTDYNMHWVKQSHGKSLEWIGYINPNNGGTTYNQKFKGKATLTVNKSSSTAYMELRSLTSEDSAVYYCASSEYYGSTFLFAYWGQGTLVTVSS
VL: DIVMTQSHKFMSTSVGDRVGITCKASQDVSIAVAWYQQKPGQSPKLLIYSASYRYTGVPDRFTGSGSGTDFTFTISSVQAEDLAAYYCQQHYSTPWTFGGGTKLEIKR
notes: Murine variable regions with hIgG4(LALA) and CL constant regions; also called M P2-G4
